Reference: PMC4523205, “Human Non-neutralizing HIV-1 Envelope Monoclonal Antibodies Limit the Number of Founder Viruses during SHIV Mucosal Infection in Rhesus Macaques” (PLoS Pathogens, 2015)

Molecular target: T1, Env of SHIV-SF162P3, on virions (SHIV-SF162P3, env from HIV-1 SF162 …, UniProt P19550, strain)
T1 construct: HIV-1 SF162-derived envelope glycoprotein (gp120/gp41) of SHIV-SF162P3, as it stands on virus particles; source: virus stock
Experiment: infectious virus capture assay (plate based); antibody mixed with viral stock, immune complexes held on plates coated with anti-human IgG, captured infectious virus read with indicator cells (RLU)
Conditions: one partner purified

B1: 7B2 IgG1_AAA (antibody, V domains shown)
VH: QVQLVQSGGGVFKPGGSLRLSCEASGFTFTEYYMTWVRQAPGKGLEWLAYISKNGEYSKYSPSSNGRFTISRDNAKNSVFLQLDRLSADDTAVYYCARADGLTYFSELLQYIFDLWGQGARVTVSS
VL: DIVLAQSPDSLAVSPGERATIHCKSSQTLLYSSNNRHSIAWYQQRPGQPPKLLLYWASMRLSGVPDRFSGSGSGTDFTLTINNLQAEDVAIYYCHQYSSHPPTFGHGTRVELR
notes: variable region as in the heavy chain of m1 (PDB 4YDV, heavy chain); as the light chain of m1 (PDB 4YDV, light chain); IgG1 with the Fc changes S298A, E333A, K334A; also called 7B2_AAA; source: CHO cells (Catalent, Somerset, NJ), recombinant; copies: 2 + 2
  binding result: binds
